These results are taken from patent US20240190962A1 (IMMUNOWAKE, published 2024).

Numbering of substitutions follows the chain as printed. Names may count otherwise.

T1: human IL-2 receptor (IL-2Rα, IL-2Rβ, IL-2Rγ) (human, UniProt P01589 22-272; P14784 27-551; P31785 23-369)
T1 sequence (looked up) 1: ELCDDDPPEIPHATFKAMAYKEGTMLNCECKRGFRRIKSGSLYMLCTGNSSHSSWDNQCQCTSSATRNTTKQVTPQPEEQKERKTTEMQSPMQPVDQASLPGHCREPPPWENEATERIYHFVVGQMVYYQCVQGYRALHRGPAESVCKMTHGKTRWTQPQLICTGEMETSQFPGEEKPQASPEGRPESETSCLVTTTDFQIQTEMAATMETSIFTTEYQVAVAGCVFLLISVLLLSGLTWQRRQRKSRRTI
T1 sequence (looked up) 2: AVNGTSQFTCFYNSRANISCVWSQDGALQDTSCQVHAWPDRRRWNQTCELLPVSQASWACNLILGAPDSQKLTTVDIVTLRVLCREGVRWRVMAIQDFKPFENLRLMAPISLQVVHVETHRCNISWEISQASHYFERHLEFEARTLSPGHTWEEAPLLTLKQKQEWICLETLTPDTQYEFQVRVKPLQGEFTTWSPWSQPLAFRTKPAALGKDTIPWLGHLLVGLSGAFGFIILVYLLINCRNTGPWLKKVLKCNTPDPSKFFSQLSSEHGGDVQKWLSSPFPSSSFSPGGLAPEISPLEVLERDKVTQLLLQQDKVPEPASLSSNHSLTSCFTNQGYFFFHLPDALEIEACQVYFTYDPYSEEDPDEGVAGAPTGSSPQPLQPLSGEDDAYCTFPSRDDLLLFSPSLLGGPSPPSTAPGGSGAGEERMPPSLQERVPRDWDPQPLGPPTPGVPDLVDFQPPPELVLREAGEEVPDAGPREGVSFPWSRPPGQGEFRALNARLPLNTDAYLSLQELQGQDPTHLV
T1 sequence (looked up) 3: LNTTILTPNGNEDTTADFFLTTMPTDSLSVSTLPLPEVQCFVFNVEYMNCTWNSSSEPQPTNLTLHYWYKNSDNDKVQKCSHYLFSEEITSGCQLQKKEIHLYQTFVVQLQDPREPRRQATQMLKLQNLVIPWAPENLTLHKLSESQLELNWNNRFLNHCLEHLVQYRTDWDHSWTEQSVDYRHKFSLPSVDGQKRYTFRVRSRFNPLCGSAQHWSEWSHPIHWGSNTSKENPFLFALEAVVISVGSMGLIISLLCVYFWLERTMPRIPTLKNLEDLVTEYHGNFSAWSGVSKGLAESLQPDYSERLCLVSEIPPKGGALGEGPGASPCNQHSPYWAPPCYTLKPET

B1: IL-2(L18R/Q22E/R38D/K43E/E61R)/PD-L1(mut2)-Fc/IL-12(E59A/F60A) (Fc fusion)
chain 1: FTVTVPKDLYVVEYGSNMTIECKFPVEKQLDLAALQVYWMMEDKNIIQFVHGEEDLKVQHSSYRQRARLLKDQLSLGNAALQITDVKLQDAGVYTCLIAYKGADYKRITVKVNAPYNKINQRILVVDPVTSEHELTCQAEGYPKAEVIWTSSDHQVLSGKTTTTNSKREEKLFNVTSTLRINTTTNEIFYCTFRRLDPEENHTAELVIPELPLAHPPNERGGGGSGGGDKTHTCPPCPAPEDEGGPSVFLFPPKPKDTLMISRTPEVTCVVVDVSHEDPEVKFNWYVDGVEVHNAKTKPREEQYNSTYRVVSVLTVLHQDWLNGKEYKCKVSNKALPAPIEKTISKAKGQPREPQVYVYPPSREEMTKNQVSLTCLVKGFYPSDIAVEWESNGQPENNYKTTPPVLDEDGSFALVSKLTVDKSRWQQGNVFSCSVMHEALHNHYTQKSLSLSPGKGGGGSGGGIWELKKDVYVVELDWYPDAPGEMVVLTCDTPEEDGITWTLDQSSEVLGSGKTLTIQVKAAGDAGQYTCHKGGEVLSHSLLLLHKKEDGIWSTDILKDQKEPKNKTFLRCEAKNYSGRFTCWWLTTISTDLTFSVKSSRGSSDPQGVTCGAATLSAERVRGDNKEYEYSVECQEDSACPAAEESLPIEVMVDAVHKLKYENYTSSFFIRDIIKPDPPKNLQLKPLKNSRQVEVSWEYPDTWSTPHSYFSLTFCVQVQGKSKREKKDRVFTDKTSATVICRKNASISVRAQDRYYSSSWSEWASVPCSGGGGSGGGSGGGGSRNLPVATPDPGMFPCLHHSQNLLRAVSNMLQKARQTLEFYPCTSEEIDHEDITKDKTSTVEACLPLELTKNESCLNSRETSFITNGSCLASRKTSFMMALCLSSIYEDLKMYQVEFKTMNAKLLMDPKRQIFLDQNMLAVIDELMQALNFNSETVPQKSSLEEPDFYKTKIKLCILLHAFRIRAVTIDRVMSYLNAS
chain 2: FTVTVPKDLYVVEYGSNMTIECKFPVEKQLDLAALQVYWMMEDKNIIQFVHGEEDLKVQHSSYRQRARLLKDQLSLGNAALQITDVKLQDAGVYTCLIAYKGADYKRITVKVNAPYNKINQRILVVDPVTSEHELTCQAEGYPKAEVIWTSSDHQVLSGKTTTTNSKREEKLFNVTSTLRINTTTNEIFYCTFRRLDPEENHTAELVIPELPLAHPPNERGGGSGAPTSSSTKKTQLQLEHLRLDLEMILNGINNYKNPKLTDMLTFEFYMPKKATELKHLQCLERELKPLEEVLNLAQSKNFHLRPRDLISNINVIVLELKGSETTFMCEYADETATIVEFLNRWITFCQSIISTLTGGGGSGGGDKTHTCPPCPAPEKKGGPSVFLFPPKPKDTLMISRTPEVTCVVVDVSHEDPEVKFNWYVDGVEVHNAKTKPREEQYNSTYRVVSVLTVLHQDWLNGKEYKCKVSNKALPAPIEKTISKAKGQPREPQVYVLPPSREEMTKNQVSLLCLVKGFYPSDIAVEWESNGQPENRYMTWPPVLDSDGSFFLYSKLTVDKSRWQQGNVFSCSVMHEALHNHYTQKSLSLSPGK
B2: IL-2(R38D/K43E/E61R/Q126T)/PD-L1(mut2)-Fc/IL-12(E59A/F60A) (Fc fusion)
chain 1: B1 chain 1
chain 2: B1 chain 2 with R243L, E247Q, Q351T
B3: IL-12(E59A/F60A)/PD-L1(mut2)-Fc (Fc fusion)
chain 1: FTVTVPKDLYVVEYGSNMTIECKFPVEKQLDLAALQVYWMMEDKNIIQFVHGEEDLKVQHSSYRQRARLLKDQLSLGNAALQITDVKLQDAGVYTCLIAYKGADYKRITVKVNAPYNKINQRILVVDPVTSEHELTCQAEGYPKAEVIWTSSDHQVLSGKTTTTNSKREEKLFNVTSTLRINTTTNEIFYCTFRRLDPEENHTAELVIPELPLAHPPNERGGGGSGGGIWELKKDVYVVELDWYPDAPGEMVVLTCDTPEEDGITWTLDQSSEVLGSGKTLTIQVKAAGDAGQYTCHKGGEVLSHSLLLLHKKEDGIWSTDILKDQKEPKNKTFLRCEAKNYSGRFTCWWLTTISTDLTFSVKSSRGSSDPQGVTCGAATLSAERVRGDNKEYEYSVECQEDSACPAAEESLPIEVMVDAVHKLKYENYTSSFFIRDIIKPDPPKNLQLKPLKNSRQVEVSWEYPDTWSTPHSYFSLTFCVQVQGKSKREKKDRVFTDKTSATVICRKNASISVRAQDRYYSSSWSEWASVPCSGGGGSGGGSGGGGSRNLPVATPDPGMFPCLHHSQNLLRAVSNMLQKARQTLEFYPCTSEEIDHEDITKDKTSTVEACLPLELTKNESCLNSRETSFITNGSCLASRKTSFMMALCLSSIYEDLKMYQVEFKTMNAKLLMDPKRQIFLDQNMLAVIDELMQALNFNSETVPQKSSLEEPDFYKTKIKLCILLHAFRIRAVTIDRVMSYLNASGGGGSGGGDKTHTCPPCPAPEDEGGPSVFLFPPKPKDTLMISRTPEVTCVVVDVSHEDPEVKFNWYVDGVEVHNAKTKPREEQYNSTYRVVSVLTVLHQDWLNGKEYKCKVSNKALPAPIEKTISKAKGQPREPQVYVYPPSREEMTKNQVSLTCLVKGFYPSDIAVEWESNGQPENNYKTTPPVLDEDGSFALVSKLTVDKSRWQQGNVFSCSVMHEALHNHYTQKSLSLSPGK
chain 2: FTVTVPKDLYVVEYGSNMTIECKFPVEKQLDLAALQVYWMMEDKNIIQFVHGEEDLKVQHSSYRQRARLLKDQLSLGNAALQITDVKLQDAGVYTCLIAYKGADYKRITVKVNAPYNKINQRILVVDPVTSEHELTCQAEGYPKAEVIWTSSDHQVLSGKTTTTNSKREEKLFNVTSTLRINTTTNEIFYCTFRRLDPEENHTAELVIPELPLAHPPNERGGGGSGGGDKTHTCPPCPAPEKKGGPSVFLFPPKPKDTLMISRTPEVTCVVVDVSHEDPEVKFNWYVDGVEVHNAKTKPREEQYNSTYRVVSVLTVLHQDWLNGKEYKCKVSNKALPAPIEKTISKAKGQPREPQVYVLPPSREEMTKNQVSLLCLVKGFYPSDIAVEWESNGQPENRYMTWPPVLDSDGSFFLYSKLTVDKSRWQQGNVFSCSVMHEALHNHYTQKSLSLSPGK
B4: IL-2(L18R/Q22E/R38D/K43E/E61R)/IL-12(E59A/F60A)/PD-L1(mut2)-Fc (Fc fusion)
chain 1: B3 chain 1
chain 2: B1 chain 2
B5: PD-L1(mut2)-Fc/IL-12(E59A/F60A) (Fc fusion)
chain 1: B1 chain 1
chain 2: B3 chain 2
B6: IL-2(R38D/K43E/E61R/Q126T)/IL-12(E59A/F60A)/PD-L1(mut2)-Fc (Fc fusion)
chain 1: B3 chain 1
chain 2: B1 chain 2 with R243L, E247Q, Q351T

The target in the first assay is T1, human IL-2 receptor (IL-2Rα, IL-2Rβ, …). The assay can be described thus: cell-based or functional assay.
In the case of B1, the “IL-2 biological activity, HEK-IL-2” value was 3% and the “IL-2 biological activity, HEK-IL-2-PD-1” value was 32%.
In the same order, the values of B2 are 3% and 31%.
In the same order, the values of B3 are below 0.1% and below 0.1%.
In the same order, the values of B4 are 4% and 35%.
Turning to B5, the “IL-2 biological activity, HEK-IL-2” value is below 0.1% and the “IL-2 biological activity, HEK-IL-2-PD-1” value is below 0.1%.
Turning to B6, the “IL-2 biological activity, HEK-IL-2” value is 2% and the “IL-2 biological activity, HEK-IL-2-PD-1” value stood at 20%.

The target in a further assay is human IL-12 receptor complex (IL-12Rβ1, IL-12Rβ2) (human, UniProt P42701 24-662; Q99665 24-862). As to the kind of experiment: cell-based or functional assay.
human IL-12 receptor complex (IL-12Rβ1, IL-12Rβ2), sequence (Q99665 24-862, chain 2 of 2, other chains not shown): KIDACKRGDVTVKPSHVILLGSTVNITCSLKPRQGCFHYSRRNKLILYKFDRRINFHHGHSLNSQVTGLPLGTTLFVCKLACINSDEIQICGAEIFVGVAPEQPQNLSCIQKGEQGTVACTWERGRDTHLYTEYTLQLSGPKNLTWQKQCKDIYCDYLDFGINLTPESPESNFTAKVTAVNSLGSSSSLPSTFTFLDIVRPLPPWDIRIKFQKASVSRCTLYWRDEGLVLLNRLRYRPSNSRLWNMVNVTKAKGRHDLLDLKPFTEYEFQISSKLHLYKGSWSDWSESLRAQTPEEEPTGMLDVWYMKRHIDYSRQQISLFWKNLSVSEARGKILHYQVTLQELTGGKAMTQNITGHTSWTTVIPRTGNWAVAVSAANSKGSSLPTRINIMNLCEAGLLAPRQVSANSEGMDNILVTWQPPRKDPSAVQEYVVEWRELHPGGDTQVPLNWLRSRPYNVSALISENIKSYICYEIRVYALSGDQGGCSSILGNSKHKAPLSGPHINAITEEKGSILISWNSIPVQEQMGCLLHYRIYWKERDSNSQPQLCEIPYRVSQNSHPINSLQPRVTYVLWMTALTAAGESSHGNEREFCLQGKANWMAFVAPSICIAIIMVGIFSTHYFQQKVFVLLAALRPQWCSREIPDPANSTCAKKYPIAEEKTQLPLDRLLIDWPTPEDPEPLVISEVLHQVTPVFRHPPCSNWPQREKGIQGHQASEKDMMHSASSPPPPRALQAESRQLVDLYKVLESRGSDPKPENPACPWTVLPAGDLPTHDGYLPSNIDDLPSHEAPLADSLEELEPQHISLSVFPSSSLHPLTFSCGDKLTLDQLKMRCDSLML
Take B1: the “IL-12 biological activity, HEK-IL-12” value came out at 2% and the “IL-12 biological activity, HEK-IL-12-PD-1” value stood at 27%.
The corresponding values for B2 are 1% and 30%.
In the same order, the values of B3 are below 0.2% and 24%.
In the same order, the values of B4 are below 0.2% and 19%.
On to B5, for which the “IL-12 biological activity, HEK-IL-12” value stood at 1% and the “IL-12 biological activity, HEK-IL-12-PD-1” value was determined as 25%.
On to B6, for which the “IL-12 biological activity, HEK-IL-12” value is below 0.2% and the “IL-12 biological activity, HEK-IL-12-PD-1” value amounted to 25%.
